Measured values: the DeepSol protein solubility set

Test: soluble on expression in E. coli; label from the status in PepcDB or PDB records

Q: Which “soluble on expression in E. coli” value does the source give for “MGSDKIHHHHHHMMPNPLLDIRIGTMVRANLEDPAAYVRQILPLGFESIQPFFWQTLGGKDLPRLAGEIREAIGDADVVVSSLGVFGNPLESGEVDRGVLAAWETVIDNAHLFGASMVSGFTGRLRGKKLTDSLPRFREVWGPLAKRAADKGVRIAFENCAMDGNWAVGDWNIAHNPDAWELMFNELPDDNLGLEWEPCHQLVYLIDPIPQIRKWAPRIFHVHGKDATVRWDVIREHGVFGRLPFVQMRTPGFGDSDWTRVISELRLAGYKGAIDIEGWHDPVYRDDLEITGQARALEYLKQCRGGASYLQNPT” here?
A: not soluble

Q: Which “soluble on expression in E. coli” value does the source give for “MKAVKPMTDNISVLIMGVDESEIRDKNYGKATRTDALLLATINKNDKSVKLVSIPRDSRVYIKSRDKYDKITHAHVFGGVDSTIDTVENFLDVPVDYYVKFNFKSFIKIVDSLGGITVDVPVEFTEQNSKDEADAVHLKKGRQHLNGEEALALARTRHIDSDYMRGQRQQLVLEAIAQKALSLNSINKIGGLLDAVDKDLKTNLTFDDMMTIAKNSMDSNLKMDKMQVEGTDKYIGGIYYYVPNEKSVNTISTTLQEHLGVTNKNEHKKLLEHHHHHH” here?
A: soluble

Q: Which “soluble on expression in E. coli” value does the source give for “MSSDANSDDPFSKPIVRKRFQATLAQQGIEDDQLPSVRSSDSPDVPDTPDVPVNQLSSPPLSLPETLSEGNAETNLSDDSEPEMLSQSSTSSLNRRMEDSAIDPSRGTRKSQSRGFDYDPAGERTTAPVQKKKKDEIDMGGAKFFPKQEKKHVYTHKWTTEEDDEDEKTISSSSNRYSSRPNQPAVSARPRQPVYATTSTYSKPLASGYGSRVRHIKEANELRESGEYDDFKQDLVYILSSLQSSDASMKVKCLSAISLAKKCVSPDFRQFIKSENMTKSIVKALMDSPEDDLFALAASTVLYLLTRDFNSIKIDFPSLRLVSQLLRIEKFEQRPEDKDKVVNMVWEVFNSYIEKQEVGGQKVSFDMRKESLTPSSLIIEALVFICSRSVNDDNLKSELLNLGILQFVVAKIETNVNLIADNADDTYSILILNRCFRILESSSVFHKKNQAFLISHRSNILISSLAKFLQVILDRVHQLAEEEVKKYISCLALMCRLLINISHDNELCCSKLGQIEGFLPNAITTFTYLAPKFGKENSYDINVMMTSLLTNLVERCNANRKVLIAQTVKMVIPGHDVEEVPALEAITRLFVYHESQAQIVDADLDRELAFDEGGCGDEEEEEEGGDESSDEDGVRKDGRLDRNKMDRMDQVDVVHALQQVMNKASAHMEGSVIASYHALLVGFVLQQNEDHLDEVRKHLPGKNFQNMISQLKRLYDFTKATMAKRVESNSGFRAIERVIEYLERLE” here?
A: not soluble

Q: For “MGSDKIHHHHHHMSQAPYFVPRAPYAEDPSKSKGRRFKEDESRTRTPFARDRDRIIHTSAFRRLKEKTQVFVAHEGDNFRTRLTHTLEVAQVARSLATALGLDADLAETIALAHDLGHPPFGHAGEDELEIQMREYGGFDHNVQTFRVVTELEHRYPDFIGLNLTWETLEGVIKHNGPVTNKLGKPSWKAISKYDNEYELGLGTWASAEAQVAALADDIAYNNHDVDDGVTAGLFTLDDLMDVPLIGPILAAVKSERPDLDARLTHLEAVRRMIGAMVDDVMGETLHRAAASGVQSADDVRALDHALVAFSSDMAEDLARLRGFLYERMYRHWRVNRTRSQARRILGEMFALFLREPEVLPTVWFAKSQNRDEAGRARVVCDYIAGMTDRFAIEEHRKLFHLDVWN”, which “soluble on expression in E. coli” value is on record?
A: not soluble

Q: For “MTTVRIPAGWPATEEEARAVQDELRGRVILDEPGPPPGTGRVTGVDVAYDDERDVVVAAAVVLDAATLDVVAEATAVGEVSFPYVPGLLAFREIPTVLAALDALPCPPGLIVCDGYGVAHPRRFGLASHLGVLTGLPTIGVAKNPFTFSYEDPGAPRGSAAPLLAGADEVGRALRTQSGVKPVFVSVGHRVDLDHACAHTLALTPKYRIPETTRRADSLCRRALKEATALEHHHHHH”, which “soluble on expression in E. coli” value is on record?
A: soluble

Q: For “MGPTQETYTIVRYQSGTFSKQLDEIVTESPITIKLNGEEYVTVVCTPNYIEDMVIGFLISEGIISSYNDVEELWVQKDNGIVHVKSSKVNPLYQTLYNKRYVTSCCGKGRQGFIFVNDAAKAKDLHDIHVKITPEECFYLMNTLQQSSTTFRQTGGVHNTALCDRNKILLSRMDIGRHNALDKIYGHCLRNDISVKGKIIAFSGRISSEILLKVSKIGCEIVLSKSAPTKLALQLAHDLGITVVGFIRNESCNIYTHPHRIDGYQSNNLEHHHHHH”, which “soluble on expression in E. coli” value is on record?
A: soluble
